Source: patent US20110008345A1 (GlaxoSmithKline, published 2011)
Where two headings read alike, the source gives them in different places. Values belong to the binder of their own block, whether it stands above or below them.

Tests used:
[1] = target: recombinant human TNF-alpha (human, UniProt P01375 77-233); assay: ELISA
RNAse A = target: T1, RNAse A (UniProt P61823 27-150); assay: ELISA
T1 sequence (looked up): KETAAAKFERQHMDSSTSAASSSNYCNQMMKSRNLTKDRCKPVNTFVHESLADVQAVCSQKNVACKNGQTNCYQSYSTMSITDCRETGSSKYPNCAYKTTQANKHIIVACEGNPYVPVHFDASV

HEL (Hen Egg Lysozyme) = target: T2, HEL (Hen Egg Lysozyme) (hen, UniProt P00698 19-147); assay: ELISA
T2 construct: also called hen egg white lysozyme
T2 sequence (P00698 19-147): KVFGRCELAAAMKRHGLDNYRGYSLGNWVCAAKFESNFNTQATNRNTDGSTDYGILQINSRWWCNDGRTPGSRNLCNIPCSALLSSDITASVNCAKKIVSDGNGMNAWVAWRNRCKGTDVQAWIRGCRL

recombinant human IL-12 = target: T3, recombinant human IL-12 (human, UniProt P29459 23-219; P29460 23-328); assay: ELISA
T3 sequence (looked up) 1: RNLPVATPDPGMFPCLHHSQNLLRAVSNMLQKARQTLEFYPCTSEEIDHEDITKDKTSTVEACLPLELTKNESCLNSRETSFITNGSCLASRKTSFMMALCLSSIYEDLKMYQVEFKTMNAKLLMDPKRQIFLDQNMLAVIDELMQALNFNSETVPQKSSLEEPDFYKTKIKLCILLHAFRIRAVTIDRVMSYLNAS
T3 sequence (looked up) 2: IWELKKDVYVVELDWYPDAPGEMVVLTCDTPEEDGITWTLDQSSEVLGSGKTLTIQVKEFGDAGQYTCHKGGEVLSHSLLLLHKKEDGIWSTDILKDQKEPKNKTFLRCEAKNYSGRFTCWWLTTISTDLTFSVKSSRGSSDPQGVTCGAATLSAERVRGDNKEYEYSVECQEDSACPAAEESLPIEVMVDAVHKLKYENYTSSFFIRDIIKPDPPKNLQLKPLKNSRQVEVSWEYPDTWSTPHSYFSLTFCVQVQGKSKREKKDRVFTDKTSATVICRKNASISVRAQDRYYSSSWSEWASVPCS

[2] = target: T4, Recombinant Human HGF R (c-MET)/Fc Chimera (human, UniProt P08581 25-932); assay: ELISA
T4 construct: bought; also called HGF receptor
T4 sequence (P08581 25-932 limits assumed, change not shown): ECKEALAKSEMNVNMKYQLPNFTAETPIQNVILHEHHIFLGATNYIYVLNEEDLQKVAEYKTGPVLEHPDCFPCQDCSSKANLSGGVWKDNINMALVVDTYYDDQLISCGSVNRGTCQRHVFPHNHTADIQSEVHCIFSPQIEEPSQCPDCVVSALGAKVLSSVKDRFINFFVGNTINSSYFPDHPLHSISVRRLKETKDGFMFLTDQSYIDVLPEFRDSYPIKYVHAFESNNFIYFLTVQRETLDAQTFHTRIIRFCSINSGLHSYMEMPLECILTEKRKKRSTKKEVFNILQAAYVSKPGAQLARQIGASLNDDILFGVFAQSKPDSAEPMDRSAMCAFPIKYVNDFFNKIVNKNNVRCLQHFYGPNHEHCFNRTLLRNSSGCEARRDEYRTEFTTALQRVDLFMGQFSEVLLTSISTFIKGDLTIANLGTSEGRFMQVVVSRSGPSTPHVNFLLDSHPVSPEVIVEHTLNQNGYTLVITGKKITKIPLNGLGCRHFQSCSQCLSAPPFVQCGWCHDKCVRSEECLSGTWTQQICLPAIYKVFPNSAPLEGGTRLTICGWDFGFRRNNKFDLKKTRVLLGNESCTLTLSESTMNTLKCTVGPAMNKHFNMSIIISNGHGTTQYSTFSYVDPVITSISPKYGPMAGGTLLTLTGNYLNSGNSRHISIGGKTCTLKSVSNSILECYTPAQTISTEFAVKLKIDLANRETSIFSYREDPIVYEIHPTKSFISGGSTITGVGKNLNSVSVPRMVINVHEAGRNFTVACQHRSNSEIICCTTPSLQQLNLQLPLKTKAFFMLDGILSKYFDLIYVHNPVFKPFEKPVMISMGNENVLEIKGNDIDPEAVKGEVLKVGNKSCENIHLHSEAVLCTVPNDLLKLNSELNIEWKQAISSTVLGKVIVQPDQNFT

[3] = target: recombinant E. coli-expressed human IL-18 (human, UniProt Q14116 37-193); assay: ELISA
[4] = target: recombinant Sf21-expressed human IL-5 (human, UniProt P05113 20-134); assay: ELISA
recombinant human VEGF = target: T5, recombinant human VEGF (human, UniProt P15692-4 27-191); assay: ELISA
T5 construct: also called VEGF165; hVEGF165

[5] = target: T6, recombinant E. coli-expressed human IL-13 (human, UniProt P35225 35-146); assay: SPR
T6 construct: made and purified at GSK; also called Interleukin-13; rhIL-13

[6] = target: T7, recombinant E. coli-expressed human IL-4 (human, UniProt P05112 25-153); assay: SPR
T7 construct: made and purified at GSK; also called Interleukin-4; rhIL-4
T7 sequence: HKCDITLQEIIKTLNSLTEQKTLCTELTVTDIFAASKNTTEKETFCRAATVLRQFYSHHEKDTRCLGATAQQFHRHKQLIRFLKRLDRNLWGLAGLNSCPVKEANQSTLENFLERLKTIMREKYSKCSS

[7] = target: T7, recombinant E. coli-expressed human IL-4; assay: SPR; remark: listed apart in the source
[8] = target: T7, recombinant E. coli-expressed human IL-4; assay: SPR; remark: listed apart in the source
[9] = target: T8, recombinant E. coli-expressed cynomolgus IL-13 (cynomolgus, UniProt Q0PW92 21-132); assay: SPR
T8 construct: also called cyno IL-13

[10] = target: T9, recombinant E. coli-expressed cynomolgus IL-4 (cynomolgus, UniProt P79339 25-153); assay: SPR
T9 construct: also called cyno IL-4
T9 sequence (looked up): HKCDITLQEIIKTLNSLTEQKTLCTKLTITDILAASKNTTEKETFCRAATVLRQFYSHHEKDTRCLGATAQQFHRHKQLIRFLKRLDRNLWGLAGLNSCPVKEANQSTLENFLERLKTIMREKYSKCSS

[11] = target: T7, recombinant E. coli-expressed human IL-4; assay: SPR; remark: listed apart in the source
[12] = target: T7, recombinant E. coli-expressed human IL-4; assay: SPR exp 1
[13] = target: T7, recombinant E. coli-expressed human IL-4; assay: SPR exp 2
[14] = target: T7, recombinant E. coli-expressed human IL-4; assay: SPR exp 1; remark: listed apart in the source
[15] = target: T7, recombinant E. coli-expressed human IL-4; assay: SPR exp 2; remark: listed apart in the source
[16] = target: T7, recombinant E. coli-expressed human IL-4; assay: SPR exp 3
[17] = target: T7, recombinant E. coli-expressed human IL-4; assay: SPR exp 1; remark: listed apart in the source
[18] = target: T7, recombinant E. coli-expressed human IL-4; assay: SPR exp 2; remark: listed apart in the source
[19] = target: T7, recombinant E. coli-expressed human IL-4; assay: SPR, purified
[20] = target: T7, recombinant E. coli-expressed human IL-4; assay: SPR, purified; remark: listed apart in the source
[21] = target: T7, recombinant E. coli-expressed human IL-4; assay: SPR stoichiometry
[22] = target: T7, recombinant E. coli-expressed human IL-4; assay: cell-based or functional assay
[23] = target: T9, recombinant E. coli-expressed …; assay: cell-based or functional assay
[24] = target: T7, recombinant E. coli-expressed human IL-4; assay: cell-based or functional assay; remark: listed apart in the source
[25] = target: T7, recombinant E. coli-expressed human IL-4; assay: ELISA, IL-4 binding to IL4Ralpha-Fc
[26] = target: T6, recombinant E. coli-expressed human …; assay: SPR; remark: listed apart in the source
[27] = target: T6, recombinant E. coli-expressed human …; assay: SPR; remark: listed apart in the source
[28] = target: T8, recombinant E. coli-expressed …; assay: SPR; remark: listed apart in the source
[29] = target: T6, recombinant E. coli-expressed human …; assay: SPR; remark: listed apart in the source
[30] = target: T8, recombinant E. coli-expressed …; assay: SPR; remark: listed apart in the source
[31] = target: T6, recombinant E. coli-expressed human …; assay: SPR exp 1
[32] = target: T6, recombinant E. coli-expressed human …; assay: SPR exp 2
[33] = target: T6, recombinant E. coli-expressed human …; assay: SPR exp 1; remark: listed apart in the source
[34] = target: T6, recombinant E. coli-expressed human …; assay: SPR exp 3
[35] = target: T6, recombinant E. coli-expressed human …; assay: SPR exp 1; remark: listed apart in the source
[36] = target: T6, recombinant E. coli-expressed human …; assay: SPR, purified
[37] = target: T6, recombinant E. coli-expressed human …; assay: SPR, purified; remark: listed apart in the source
[38] = target: T6, recombinant E. coli-expressed human …; assay: SPR stoichiometry
[39] = target: T6, recombinant E. coli-expressed human …; assay: SPR, no IL-4 bound
[40] = target: T6, recombinant E. coli-expressed human …; assay: cell-based or functional assay
[41] = target: T6, recombinant E. coli-expressed human …; assay: ELISA, IL-13 binding to IL13Ralpha2/Fc
[42] = target: T10, recombinant human IGF-1R-his tag (human, UniProt P08069 31-932); assay: ELISA
T10 construct: bought; also called rhIGF-1R

[43] = target: T6, recombinant E. coli-expressed human …; assay: SPR; remark: listed apart in the source

- binding result [1]: no binding (tested: 1 ug/ml)
- binding result (RNAse A): no binding (tested: 2 ug/mL)
- binding result (HEL (Hen Egg Lysozyme)): no binding
- binding result (recombinant human IL-12): no binding
- binding result [2]: no binding
- binding result [3]: no binding
- binding result [4]: no binding
- binding result (recombinant human VEGF): no binding
- binding result [5]: no binding
- Kd [6]: 0.06 nM
- koff [6]: 0.000123 s⁻¹
- kon [6]: 2.04e+06 M⁻¹ s⁻¹
- Kd [7]: 0.037 nM
- Kd [8]: 0.02 nM
- binding result [9]: no binding
- Kd [10]: 0.046 nM
- koff [10]: 0.000108 s⁻¹
- kon [10]: 2.34e+06 M⁻¹ s⁻¹
- Kd [11]: 0.00572 nM
- koff [11]: 2.43e-05 s⁻¹
- kon [11]: 4.25e+06 M⁻¹ s⁻¹
- Kd [12]: 0.03 nM
- koff [12]: 0.00016 s⁻¹
- kon [12]: 5.3e+06 M⁻¹ s⁻¹
- Kd [13]: 0.06 nM
- koff [13]: 0.000123 s⁻¹
- kon [13]: 2.04e+06 M⁻¹ s⁻¹
- Kd [14]: 0.0137 nM
- Kd [15]: 0.011 nM
- Kd [16]: 0.013 nM
- Kd [17]: 0.0137 nM
- Kd [18]: 0.011 nM
- Kd [19]: 0.03 nM
- Kd [20]: 0.037 nM
- Stoichiometry [21]: 1.8
- Mean ND50 (TF-1) [22]: 1.36 nM
- Mean ND50 (TF-1) [23]: 2.62 nM
- Mean IC50 (whole blood phospho-STAT6) [24]: 2.44 nM
- IC50 [25]: 3.45 nM
B1: Pascolizumab (Anti-human IL-4 monoclonal antibody) (antibody, human IgG1, kappa, V domains shown)
VH: QVTLRESGPALVKPTQTLTLTCTFSGFSLSTSGMGVSWIRQPPGKGLEWLAHIYWDDDKRYNPSLKSRLTISKDTSRNQVVLTMTNMDPVDTATYYCARRETVFYWYFDVWGRGTLVTVSS
VL: DIVLTQSPSSLSASVGDRVTITCKASQSVDYDGDSYMNWYQQKPGKAPKLLIYAASNLESGIPSRFSGSGSGTDFTFTISSLQPEDIATYYCQQSNEDPPTFGQGTKVEIKR
notes: also called anti-human IL4 mAb; IL-4 mAb

- binding result [4]: no binding
- Kd [5]: 0.38 nM
- Kd [26]: 0.41 nM
- Kd [27]: 0.38 nM
- Kd [9]: 0.222 nM
- koff [9]: 0.000105 s⁻¹
- kon [9]: 474000 M⁻¹ s⁻¹
- binding result [10]: no binding
- Kd [28]: 0.119 nM
- koff [28]: 6.55e-05 s⁻¹
- kon [28]: 550000 M⁻¹ s⁻¹
- Kd [29]: 0.377 nM
- koff [29]: 0.000378 s⁻¹
- kon [29]: 1e+06 M⁻¹ s⁻¹
- Kd [30]: 0.171 nM
- koff [30]: 8.22e-05 s⁻¹
- kon [30]: 479000 M⁻¹ s⁻¹
- Kd [31]: 0.57 nM
- koff [31]: 0.00049 s⁻¹
- kon [31]: 860000 M⁻¹ s⁻¹
- Kd [32]: 0.67 nM
- koff [32]: 0.000611 s⁻¹
- Kd [33]: 0.28 nM
- binding result [14]: no binding (tested: 256 nM)
- Kd [34]: 0.547 nM
- Kd [35]: 0.28 nM
- Kd [36]: 0.43 nM
- Kd [37]: 0.41 nM
- Stoichiometry [38]: 1.8
- Kd [39]: 0.366 nM
- koff [39]: 0.000368 s⁻¹
- kon [39]: 1.01e+06 M⁻¹ s⁻¹
- Mean IC50 (whole blood phospho-STAT6) [40]: 1.47 nM
- IC50 [41]: 6.43 nM
B2: Anti-human IL-13 monoclonal antibody (also known as 586) (antibody, human IgG1, kappa)
heavy: not shown
light: DIVMTQSPLSLPVTPGEPASISCRSSQNIVHINGNTYLEWYLQKPGQSPRLLIYKISDRFSGVPDRFSGSGSGTDFTLKISRVEADDVGIYYCFQGSHVPWTFGQGTKLEIKRTVAAPSVFIFPPSDEQLKSGTASVVCLLNNFYPREAKVQWKVDNALQSGNSQESVTEQDSKDSTYSLSSTLTLSKADYEKHKVYACEVTHQGLSSPVTKSFNRGEC
notes: also called Anti-human IL-13 mAb; anti-IL13 mAb

- binding result [42]: no binding
- binding result (recombinant human VEGF): no binding
- Kd [9]: 0.044 nM
- koff [9]: 2.24e-05 s⁻¹
- kon [9]: 507000 M⁻¹ s⁻¹
- binding result [10]: binds
- Kd [43]: 0.44 nM
- Kd [34]: 0.438 nM
- IC50 [25]: 36.2 nM
B3: 586H-210 GS removed (bispecific antibody, human IgG1, kappa)
heavy: not shown
light: DIVMTQSPLSLPVTPGEPASISCRSSQNIVHINGNTYLEWYLQKPGQSPRLLIYKISDRFSGVPDRFSGSGSGTDFTLKISRVEADDVGIYYCFQGSHVPWTFGQGTKLEIKRTVAAPSVFIFPPSDEQLKSGTASVVCLLNNFYPREAKVQWKVDNALQSGNSQESVTEQDSKDSTYSLSSTLTLSKADYEKHKVYACEVTHQGLSSPVTKSFNRGEC
notes: also called BPC1601
